Measurements published in paper PMC9492545 (Nature, 2022).

Biological target: T1, SARS-CoV-2 nsp12 (RNA-dependent RNA polymerase with N-terminal NiRAN domain) (SARS-CoV-2, UniProt P0DTD1)
T1 construct: also called WT nsp12; RdRp
Assay: cryo-EM structure
Conditions: both partners purified

B1: SARS-CoV-2 nsp9 (native N terminus) (natural protein)
chain: NNELSPVALRQMSCAAGTTQTACTDDNALAYYNTTKGGRFVLALLSDLQDLKWARFPKSDGTGTIYTELEPPCRFVTDTPKGPKVKYLYFIKGLNNLNRGMVLGSLAATVRLQ
notes: also called native nsp9
binding result: binds
